Results taken from patent publication US20240010721A1 (HARBOUR BIOMED SHANGHAI, published 2024).
Like-named read-outs stand apart in the source and are kept apart here.

Key:
[1] = target: T1, human ROR1 (hROR1) on cells (human, UniProt Q01973 30-937); test: cell-based or functional assay
[2] = target: T2, ROR1 (antigen of the KD determination and of the Octet dissociation measurement) (UniProt Q01973 30-403, limits assumed); test: method not stated (conventional procedures)
Human ROR1-ECD-his = target: T3, Human ROR1-ECD-his (human, UniProt Q01973 30-406); test: ELISA, plate coated with hROR1 ECD-his
T3 construct: extracellular domain; bought, Acrobiosystems RO1-H522y; also called hROR1-ECD-his; hROR1 ECD-his
Protocol: (§1) Screening by ELISA assay: 96-well plates (Corning 9018) were coated with 1 μg/mL hROR1 ECD-his/hROR2 ECD-his/mROR1 ECD-his proteins prepared with PBS in Example 1a above and incubated at 4° C. overnight. The liquid was then discarded, and the plates were washed 3 times with PBST, blocked with 5% milk for 2 h at room temperature, and washed 3 times with PBST. The taken supernatant was added at 100 μL/well, and the plates were incubated at room temperature for 1 h, followed by washing 3 times with PBST. 100 μL/well of secondary antibody (Sigma, Cat#: A8592) was added, the plates were incubated at room temperature for 1 h, and then washed. TMB was then added to the plates at 100 μL/well and incubated for 15 min at room temperature. Thereafter, the reaction was terminated and data were read.
(§2) a. Results of ELISA assay (the ELISA assay was performed according to the same procedures as in Example 2c, except that the added samples were recombinant antibodies and the secondary antibody was a-Fc (Genscript, Cat#: A01854))

[3] = target: T1, human ROR1 (hROR1) on cells; test: FACS, HEK293T-hROR1 cells; cytometer saturated
Protocol: (§3) The binding properties were characterized by FACS. The recombinant antibodies obtained above were serially diluted to 9 different concentrations and incubated for 1 h, and then determined for the binding ability with HEK293T-hROR1, CHO-K1-cynoROR1 and A549 cell lines (endogenously expressing ROR1), respectively. The secondary antibody was then incubated for 1 h. The results are shown in FIG. 4-6 and Table 7-2 below.

[4] = target: T2, ROR1 (antigen of the KD determination …); test: Octet, antigen form not stated
[5] = target: T1, human ROR1 (hROR1) on cells; test: FACS, A549 cells
Protocol: as §3

[6] = target: T1, human ROR1 (hROR1) on cells; test: FACS, HEK293T-hROR1 cells
[7] = target: T1, human ROR1 (hROR1) on cells; test: cell-based or functional assay; remark: listed apart in the source
[8] = target: T1, human ROR1 (hROR1) on cells; test: FACS, HEK293T-hROR1 cells; remark: listed apart in the source
Protocol: as §3

hROR2ECD-his [9] = target: T4, hROR2ECD-his (human, UniProt Q01974 34-403); test: ELISA, plate coated with hROR2 ECD-his
T4 construct: extracellular domain; bought, Acrobiosystems R02-H52E5; also called huROR2-his
Protocol: as §1, §2

hROR2ECD-his [10] = target: T4, hROR2ECD-his; test: ELISA, plate coated with hROR2 ECD-his; remark: listed apart in the source
Protocol: as §1, §2
The corresponding values in the table are the measured median fluorescence intensity (MFI).

[11] = target: T1, human ROR1 (hROR1) on cells; test: FACS, Panc-1 cells
[12] = target: T5, cynomolgus ROR1 (cynoROR1) on CHO-K1 cells (cynomolgus, UniProt A0A2K5WTX7 30-937); test: FACS, CHO-K1-cynoROR1 cells
T5 construct: whole, on cells; also called CHO-K1-cynoROR1; CHO-K1-cyROR1
Protocol: as §3

[13] = target: T5, cynomolgus ROR1 (cynoROR1) on CHO-K1 …; test: flow cytometry (FACS) on CHO-K1-cynoROR1 cells, antibody 0.01-100 nM, median fluorescence intensity
Protocol: as §3

[14] = target: T5, cynomolgus ROR1 (cynoROR1) on CHO-K1 …; test: as above; remark: listed apart in the source
Protocol: as §3

[15] = target: T1, human ROR1 (hROR1) on cells; test: flow cytometry (FACS) on HEK293T-hROR1 cells, antibody 0.01-100 nM, median fluorescence intensity
Protocol: as §3

[16] = target: T1, human ROR1 (hROR1) on cells; test: flow cytometry (FACS) on A549 cells (endogenous ROR1), antibody 0.01-100 nM, median fluorescence intensity
Protocol: as §3

T1 sequence (Q01973 30-937): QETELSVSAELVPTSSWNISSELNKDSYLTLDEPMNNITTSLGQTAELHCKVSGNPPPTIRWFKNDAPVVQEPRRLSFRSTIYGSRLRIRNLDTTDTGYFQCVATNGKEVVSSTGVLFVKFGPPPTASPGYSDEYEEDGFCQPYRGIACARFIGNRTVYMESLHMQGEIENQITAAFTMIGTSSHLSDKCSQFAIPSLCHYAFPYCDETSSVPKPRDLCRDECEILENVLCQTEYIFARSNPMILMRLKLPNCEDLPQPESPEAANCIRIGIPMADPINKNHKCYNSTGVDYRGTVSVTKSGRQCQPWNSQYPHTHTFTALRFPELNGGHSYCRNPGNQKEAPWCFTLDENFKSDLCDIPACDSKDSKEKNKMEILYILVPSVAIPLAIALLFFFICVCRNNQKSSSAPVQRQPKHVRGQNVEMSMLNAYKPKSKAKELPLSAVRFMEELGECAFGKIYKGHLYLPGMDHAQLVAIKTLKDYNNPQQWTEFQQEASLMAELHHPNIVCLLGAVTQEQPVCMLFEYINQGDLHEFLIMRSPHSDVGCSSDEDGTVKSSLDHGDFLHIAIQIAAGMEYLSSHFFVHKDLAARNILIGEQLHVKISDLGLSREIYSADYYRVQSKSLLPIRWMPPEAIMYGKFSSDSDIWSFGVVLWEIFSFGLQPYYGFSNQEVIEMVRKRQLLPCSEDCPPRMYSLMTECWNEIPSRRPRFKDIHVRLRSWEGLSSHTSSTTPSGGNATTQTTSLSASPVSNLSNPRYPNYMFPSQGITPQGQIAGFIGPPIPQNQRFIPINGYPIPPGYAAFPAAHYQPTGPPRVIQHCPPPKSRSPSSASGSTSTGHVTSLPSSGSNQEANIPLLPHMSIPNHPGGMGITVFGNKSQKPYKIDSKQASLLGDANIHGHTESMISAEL
T3 sequence (Q01973 30-406): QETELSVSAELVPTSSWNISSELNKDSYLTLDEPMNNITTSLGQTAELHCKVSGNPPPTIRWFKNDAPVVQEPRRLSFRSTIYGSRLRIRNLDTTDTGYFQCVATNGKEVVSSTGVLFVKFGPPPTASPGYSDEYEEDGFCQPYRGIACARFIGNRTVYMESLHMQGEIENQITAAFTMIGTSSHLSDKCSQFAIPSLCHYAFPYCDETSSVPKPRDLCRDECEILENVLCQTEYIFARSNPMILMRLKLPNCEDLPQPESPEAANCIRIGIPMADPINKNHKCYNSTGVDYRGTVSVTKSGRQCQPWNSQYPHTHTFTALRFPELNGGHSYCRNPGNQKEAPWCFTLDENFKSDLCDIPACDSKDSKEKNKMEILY
T4 sequence (Q01974 34-403): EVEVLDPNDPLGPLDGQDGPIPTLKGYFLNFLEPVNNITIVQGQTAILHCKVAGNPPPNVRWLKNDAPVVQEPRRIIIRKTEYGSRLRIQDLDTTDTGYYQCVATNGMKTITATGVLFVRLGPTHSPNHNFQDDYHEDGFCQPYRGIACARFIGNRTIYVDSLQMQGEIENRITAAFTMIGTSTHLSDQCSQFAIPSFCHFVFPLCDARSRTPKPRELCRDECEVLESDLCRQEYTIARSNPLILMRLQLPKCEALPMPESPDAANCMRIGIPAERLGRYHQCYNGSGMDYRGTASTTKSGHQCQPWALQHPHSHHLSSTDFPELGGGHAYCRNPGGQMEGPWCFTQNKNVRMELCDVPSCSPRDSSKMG
T2 sequence (Q01973 30-403 limits assumed): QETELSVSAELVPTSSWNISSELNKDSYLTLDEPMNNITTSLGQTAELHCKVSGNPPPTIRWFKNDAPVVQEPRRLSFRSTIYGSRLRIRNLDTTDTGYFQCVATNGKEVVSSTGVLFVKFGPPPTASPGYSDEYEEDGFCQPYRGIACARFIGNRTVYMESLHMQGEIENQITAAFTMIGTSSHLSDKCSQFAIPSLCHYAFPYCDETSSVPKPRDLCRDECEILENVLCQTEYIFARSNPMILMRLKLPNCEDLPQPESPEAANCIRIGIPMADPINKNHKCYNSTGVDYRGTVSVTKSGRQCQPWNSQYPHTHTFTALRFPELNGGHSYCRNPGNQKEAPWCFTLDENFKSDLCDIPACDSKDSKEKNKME

Binder | Kd [2] [nM] | koff [2] [s⁻¹] | kon [2] [M⁻¹ s⁻¹] | ELISA signal (called MFI) (Human ROR1-ECD-his) | MAX(MFI) [3] [MFI] | MAX(MFI) [5] [MFI] | fold lower EC50 than reference PR000374 [8] [fold] | ELISA signal (called MFI) (hROR2ECD-his [9]) | binding result (hROR2ECD-his [10]) | MAX(MFI) [12] [MFI] | EC50 (read off the curve) [13] [nM] | ADCC Cytotoxicity (%), Donor 1, 1 nM [1] [%] | ADCC Cytotoxicity (%), Donor 1, 10 nM [1] [%] | ADCC Cytotoxicity (%), Donor 2, 1 nM [1] [%] | ADCC Cytotoxicity (%), Donor 2, 10 nM [1] [%] | endocytosis EC50(nM) (a-hFc-MMAF killing, CTG luminescence) [7] | also measured
PR001357 (antibody, human IgG1, kappa, V domains shown, fully human IgG1, kappa) VH: QVQLVQSGGGVVQPGRSLRLSCAASGFTFSSYGMHWVRQAPGKGLEWVAVIWYDGSNKDYADSVKGRFTISRDTSKNTLYLQMNSLRAEDTAVYYCAREQARSFDLWGRGTLVTVSS VL: DIQLTQSPYSLSASVGDRVTITCRASQTINNWLAWYQQKPGKAPKLLIYKASSLESGVPSRFSGSGSGTEFTLTISSLQPDDFATYYCQQYKLYSPMYTFGQGTKVEIKR | 0.481 | 0.000191 | 397000 | 2.5 | 262000 | 4550 | 10 | 0.04 | no binding | 24600 | – | 32.1 | 32.1 | 17.4 | 15.8 | 0.137 | –
PR001362 (antibody, V domains shown, fully human IgG1, kappa) VH: QVQLVESGGGLVQPGGSLRLSCAASGFTFSTYGMHWVRQAPGKGLEWVAVIWYDGSDEDYADSVKGRFTISRDNSKNTLYLQMNSLRAEDTAVYYCARDQARSFDLWGRGTLVTVSS VL: DIVMTQSPSTLSASVGDRVTITCRASQSINSWLAWYQQKPGKAPKLLIYKASSLESGVPSRFSGSGSGTEFTLTISSLQPDDFATYYCQQYKSYSPMYTFGQGTKVEIKR | 45.4 | 0.0136 | 300000 | 2.22 | 262000 | 3750 | 10 | 0.032 | no binding | 17700 | ~2 | 13.9 | 26.9 | 13.2 | 19.2 | – | –

The remaining binders from weak to strong by Kd [2], led by results:

Kd [2] [nM] | koff [2] [s⁻¹] | kon [2] [M⁻¹ s⁻¹] | ELISA signal (called MFI) (Human ROR1-ECD-his) | MAX(MFI) [3] [MFI] | MAX(MFI) [5] [MFI] | fold lower EC50 than reference PR000374 [8] [fold] | ELISA signal (called MFI) (hROR2ECD-his [9]) | binding result (hROR2ECD-his [10]) | MAX(MFI) [12] [MFI] | EC50 (read off the curve) [13] [nM] | Binder | ADCC Cytotoxicity (%), Donor 1, 1 nM [1] [%] | ADCC Cytotoxicity (%), Donor 1, 10 nM [1] [%] | ADCC Cytotoxicity (%), Donor 2, 1 nM [1] [%] | ADCC Cytotoxicity (%), Donor 2, 10 nM [1] [%] | endocytosis EC50(nM) (a-hFc-MMAF killing, CTG luminescence) [7] | also measured
1.13 | 0.000383 | 339000 | 2.44 | 262000 | 4300 | 10 | 0.027 | no binding | 27000 | – | PR001354 (antibody, human IgG1, kappa, V domains shown, fully human IgG1, kappa; also called anti-ROR1 1015M2-C9 hIgG1; PR001354(WT)) VH: QVQLVQSGGGVVQPGRSLRLSCAASGFTFSSYGMHWVRQAPGKGLEWVAIMWYDGSDKDYADSVKGRFTISRDTSKNTLYLQMNSLRAEDTAVYYCAREQARSFDLWGRGTLVTVSS VL: DIVMTQSPSSLSASVGDRVTITCRASQTINNWLAWYQQKPGKAPKLLIYKASSLESGVPSRFSGSGSGTEFTLTISSLQPDDFATYYCQQYNSYSPMYTFGQGTKVEIKR | 33.5 | 34.7 | 14.4 | 15.9 | 0.143 | Response [4]: 0.609; koff [4]: 0.000117 s⁻¹; MFI [6]: 42800 MFI; MFI [11]: 6700 MFI
0.397 | 0.000173 | 437000 | 2.48 | 262000 | 3850 | – | 0.022 | – | 31900 | ~3 | Positive control antibody (PR000374) (antibody, human IgG1, kappa, V domains shown) VH: EVQLVESGGGLVQPGRSLRLSCTASGSDINDYPITWVRQAPGQGLEWIGFINSGGSTWYASWVKGRFTISRDDSKSIAYLQMNSLKTEDTAVYYCARGYSTYYRDFNIWGQGTLVTVSS VL: DIQMTQSPSSLSASVGDRVTINCQASQSIDSNLAWFQQKPGQPPKLLIYRASNLASGVPDRFSGSGSGTDFTLTISSLEAEDVATYYCLGGVGAVSYRTSFGGGTKVEIKR | 14.4 | 25.4 | 11.4 | 18.2 | 0.243 | EC50 (read off the curve) [14]: ~5 nM; EC50 (read off the curve) [15]: ~9 nM; EC50 (read off the curve) [16]: ~3 nM
